The NTF2 design screens of Basanta et al. (2020)

Experiment: protease stability score; higher = more stable; yeast display proteolysis, trypsin and chymotrypsin;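 also: log10 excess protease needed over predicted unfolded state with 0 meaning unfolded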

Row | Sequence | protease stability score
1 | DEEWLHRFLQQYRSGDEDQMVRNMDKDVKIDVGDKEIHGREEAERWYRELKKRIDHFEVDHIKIQGESATADVRMNVNGRDVKFTLHVEAHNGRVKYVRLQATSSEVKTRMDRALG | 0.198
2 | DEEYAHQLREFLEAWVSGDENRAKQLADPNARVNVGEERISGMDEFMKEVRKRKKEMRIEVKHIKIEVRPNKAKADVKFRVNFNGTPFDVNQKWQAHWHNGKLHSVTVNMDEDQKRFEKG | 0.451
3 | DEEYNKKVQDIFNTNDPSQFKSLIDPNARMEVGDHVFHGRHNIVKHLKKFRDQVDHFEIKEIDVKGNKLSMEFVAVVNGKRVRATMSQQAHNGRMQEIRIKATSEEDKKILKEVTS | -0.048
4 | DEHAARVFLELLKAAETGDEKRLKRLADPNARIQVGDKHVDGMDEATKKIVKTWEKSRIRFEIKSYDVDGEKVRVNMQMTNRDNGEPDSKNAHFTVEVRNGHIKHADLQHHG | -0.223
5 | DEHAARVQHEIQKVQETGDEERVRELVDPNVKIQVGDKTIHGMDEYLTRVKKRMDELRFSVTWRHYDVHNGQVNVKVEFTKDHNGKPQRDVMVMKFHIHNGRVQFLSMEKDQ | 0.843
6 | DEHADTIVKKYLDAIKSNNPEDVKENVDKDVDVEVGDTSWHGRDEVVTRVQNELDEIRIDMKVDEVNNQGNHVEVKMHMTLDINGKPATVDWDVKFDIQNGRIQSIRLRPDEENRKQKEK | 0.057
7 | DEHAEDLFRQLKEAEDTGDEDHFRRLVDPNAHFEIGNKHVHGREERATQMKQQKKQIRVEIKSMDYRVDGEKVEARVDATYNFNGRPDRMHIVIDIEFHNGRVTNARYRLDEEDLKRVEK | 0.308
8 | DEHAEHIATEWWKAIRTNNPERARELVDKDVKINVGDKRIHGREQVDREIKRLNNTSRQDYKSMHMTVKGDKVRVEMNKRQEDNGNPRSKNFEVVFDFHNGRIRHISVHETK | -0.381
9 | DEHAERIFRKWMTIYKKGDPKKVKELLDPNARVRIGDKRIRGRETAAEQQSTRADEMRNDVKVKHLEVNGDDLVVRIKFTSEENGNPKDQEAKFDWNIHNGKIRSQTQDIKG | -0.017
10 | DEHAFKRIDEMLTAFQKNDPNKIQEYMDENVKVQYGDKSVHGRDEIAKSKQETREHLRLEIRIENYDVNGDTIHVHAKVIFNVNGDPLKFEVDIVARLHNGKIKSMQLQFSHEQQKKVES | 0.682
11 | DEHAHRQFKHYLDALKENNEEDLKKQMDKDAEAKYGNQELHGRDDAARHLKRELEEIRVDITEYRIRNQGNNIEAHVRFVVKHNGQPSKMTVLITASADENHMRTIEFDEKK | 0.248
12 | DEHAIKLLKKIYEAWEEGDPDEARENADPNARYIIGDKTLHGMENIVKEWQRRYDESRIDYKHIDVQDDNGRANADVRYVVQHNGRPERKTMTVIVEVHNGRVTQIHFQDTQ | -0.01
13 | DEHAKDVFDTLREARKRGDEDTMKRQVDPNAKAQVGDKTYHGSDEIARRLTEENRESRVEYHTMSVEIQGDHVVVRFRARYEHNGQPSHFHAVEVVKADNGQIVFLVLQETK | 0.06
14 | DEHAKELAKEFMEAWTKGDPDKAATLADPNVRANVGEFNVHGREDAHRAVDRFRRQMHVELDIRSMRVQGNKVQVDVSVTVTHNGRPHSNRYVVLIIFHNGRIRSVHRRREG | 0.176
15 | DEHAKHVVETYMTAQKHNNPKDAQKMVDPNARFSVGDKEVQGSEQLDKEIQRDNKEIREHVESMSVDVDGDKAHVDRTVKFQRNGKPHKLKVHLNFRLTNGRIKTVQVDEDG | -0.308
16 | DEHAKKLAERILEAISNNNEEDIQKNIDPNAKIQVGDRQVHGREDLQKQYQDFRHHARIQNRLRSVRADGDHVTLEIEVVFKVNGNPVNNTVNMSMVIENGRVKMREVQVPEEVQDTIDQ | 0.075
17 | DEHAKKRLEEWLRNRQQGDDERLVQMADPNVRIEYGDKSFKGRDDVREWAQKESKSMDLQLKSVDLKVSGDKVDAKITFTQDENGKPDHATMNLVMKQDNGHIKVLRYEVTK | 0.084
18 | DEHAKRVLHEWLRAIQTGDPDKAMRLADKDARIRVGDKVISGREQLHKWVETLKKHIKVQIEDFNIEVHGEELELNIVATLNDNGEPQRSRWVVTVIIRNGEMKSLTQRDDS | 0.009

Row | Sequence | protease stability score
19 | DEHAKRVVEKAWKALDTGDPKTMEDMLDPNARQRYGDTSVHGRENIIHKLEKDSKEIRFKIKIDNITVHGDKIDVRMLVTERRDGQPRQTHRVATFRIHNGRLEEADFQKDG | -0.073
20 | DEHAMERIDDFFQALRNGDPKNLKEQIDPNVSLHYGDKEVTGKDRAAKEMAQIFRHIRLEFDIKSVSAHNGRVTVNAEVVDEENGRPHSRRVQNNAVWHNGVIQSFHVKETK | -0.402
21 | DEHANETVKRILRDIRHNNPHEIRKNMDPNAKVVIGDKTIHGREEAARQLKREMHEIRVEVKHIDMKVHDGRVNVNFDVVLDSNGNPQRQSYRMVVRVHNGTVHYLSKSDTR | -0.041
22 | DEHAQKLLEKEKDALERNNPDHFRDMVDKDARLRVGNKVIHGREQVSEDVERKRDEMRYRFEIKHVQVHNGQIDADVVQVVNVNGHPVRNKYRITVNVTNGRAKQVTVRIDEDTLRKMDR | -0.027
23 | DEHAQKRASQLVDKQNTGNPESIANYMDPNAKVQVGENRVHGREEIETLVKQKNKEARYEYNVESMSIQGDKLTMHLHAVVEINGQPLEFKVRVDFTFHNGRIRDVYYQLPEELLEELKR | 0.165
24 | DEHARDRATQMIEAIHNGDPDTLQELLDEDAHIQIGDKEIHGHDQASRELRRRREEQNVDVRVRDLKVTGERVKIDVEIRVSHNGQPTETKVTIDVEAHNGKIKDLRMRTSQ | 0.15
25 | DEHARHLVSELLRALESGDPDQLVKMADPNVEAQIGDKRYTGRSHMKKMQEDLKREMRYHVTDFHVEVNGNTAVADVDASVEHNGQPRRHRYRIVITFENGRAKDFSIQRDK | 1.12
26 | DEHARKQFEDLIRALSTGDPERVAQLVDPNAHFQVGDQTIHGREHLMEDVKRRRDKMRMELHVDHVKVDENHLDAIIRVVQDTNGDPDHKKYRLVAQWQNGRVNNQEMQETS | 0.541
27 | DEHARRLVKKFIEAMKHGDPDKLMKLADPNVKFDIGDHQFKGSHEANKWLERMVRHMRFSLKVDSVKAHNGRVEVDAVFTFEVNGKPDQQRFTLDFHFNNGRVQNLTWDVDPRDWRKQLK | 0.73
28 | DEHARSVMRQFVHALNTGDPDEASRQVDKNVKATYGDKSVHGRESVKEWLEKLVKRMRVEVDLKTVHAQGDTVTAKAHLTAEVNGRPFKVDVHIEATVQNGKIKELVVDFDEHFTEQVES | 2.56
29 | DEHAVEVAKKIVEAWKDGDPKRFNELFDPNAQLRVGDHHFHGSHEADRHMQTINKEQRVRYKNVRVESRPGRVEVRVDMEKTHDGRPRRSEFTVQINVHDGQVKKLTVQEDG | 0.239
30 | DEHAVRRLQEFARVLERGDESKAEQYLDPEVRITVGDREINGMKTFNNFLQEVSRQMRFSLQHVEARARNGKARIIMHFQVDHNGNPEQQRIDITASLHNGRMKRMHMRTDR | 0.031
31 | DEHDAAKRAEEAVRRANSGDEKDALRLIDPNATVQVGDKNYHGREQVRRVVEELTERFDHIQFKHVSLQGNRVTARADATHNGRTEKMIFIVRAHNGRVKSWKIESS | -0.093
32 | DEHDAESIQSVLTNGNFESMDELADKDVHVDVGNKRYHGQEQFRTLQTHYKNRVDHVDMHRLTQDGEKINADMRAVVNGKDFQFELVIKVHNGRIRRLQLNFTSDSQDKEHEERLR | 0.496
33 | DEHDEARKFADKFVKALRDGDETLVNKLVDPNAKFVIGDKDYHGRKAASTLMHEWKNRVDEQEVKIKRISVRNGRANVDVEMVMNVDGHRVHFRVIIYAERRDGRLRVVRIEAR | 1.52
34 | DEHDEKIVQTFLTALRTGDEEELQKNMDPNVSVHIGDQEVNGREEIARQLKKEQDEMRVDIRRYHISAHNGRVEVRIKFTAEVNGKPNRFTVVYDFVLHNGHIEKMHVKMSREDKKKKKQ | -0.189
35 | DEHDITKIMEEIAKVIRNNDEKRLVEMADPNVRVIVGDKEFQGRDEMEKFNHEYSRQADKVQVVSVNVNGNRITIEVTANINGRDLQFVVVFEIKNGTIENVHVNFTNPEVLRQAES | 1.19
36 | DEHDLDKWRQVMEHNDFDKLVRLADPNVKIVVGDQEYHGREQYKELMDKLEHHVDHMELHSVSITNGEVHARLTVIINGKSIEYVFKFVVDNGKLKKLRIQFTDPEDEKIWKRAMS | 1.7
